The record followed here is publication PMC5562914, “Activation of an anti-bacterial toxin by the biosynthetic enzyme CysK: mechanism of binding, interaction specificity and competition with cysteine synthase” (Scientific Reports, 2017).

The target in data set [1] is CysK from Haemophilus influenzae, His6 tag removed with thrombin (Haemophilus influenzae) (UniProt P45040). Briefly: other fluorescence titration; PLP fluorescence emission at 500 nm; HiCysK (300 nM) or NlCysK (860 nM) titrated with CdiA-CT; read after 20 min; binding isotherm (Eq. 1).
In data set [2] the target is CysK from Neisseria lactamica ATCC 23970, His6-tagged (Neisseria lactamica ATCC 23970). The data set is described as above.
Data set [3] concerns the molecule itself. Briefly: SEC; Ultrogel AcA44 column, 0.2 mL/min, buffer A. A general note: Size exclusion chromatography separates by hydrodynamic size, large species first.
In data set [4] the target is T1, CdiA-CT toxin domain from uropathogenic Escherichia coli 536, Q0T963.
T1 chain: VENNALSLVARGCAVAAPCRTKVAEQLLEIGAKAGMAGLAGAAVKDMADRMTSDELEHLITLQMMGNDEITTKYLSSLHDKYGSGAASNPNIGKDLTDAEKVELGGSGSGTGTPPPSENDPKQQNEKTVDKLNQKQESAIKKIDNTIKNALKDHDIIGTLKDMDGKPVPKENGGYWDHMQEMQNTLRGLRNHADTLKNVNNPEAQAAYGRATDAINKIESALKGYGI
Kind of data set: stopped-flow fluorescence; as a5, CysK concentration varied, 5 C. Conditions: other: stopped-flow fluorescence.

Data set [5] concerns the target T1, CdiA-CT toxin domain from uropathogenic …. Kind of data set: stopped-flow fluorescence; as a5, CysK concentration varied, 37 C. Conditions: other: stopped-flow fluorescence.
For data set [6] the target is unchanged. Briefly: stopped-flow fluorescence; PLP fluorescence, excitation 412 nm; buffer A; pseudo-first order, 200 nM EcCysK or 270 nM CdiA-CT fixed and the partner varied; 20 C; slope of kobs against concentration. Particulars: other: stopped-flow fluorescence.
Data set [7] addresses T2, E. coli CysK (EcCysK), O-acetyl-L-Ser sulfhydrylase (E. coli, UniProt P0ABK5 1-323, pyridoxal 5'-phosphate (PLP) cofactor).
T2 construct: CysK of E. coli; the E. coli cysK gene was amplified and ligated to pCH10068 (pSH21::trxA-TEV-cysK) for the purification of untagged EcCysK; not shown: TrxA, N-terminal, cleaved
T2 sequence (looked up): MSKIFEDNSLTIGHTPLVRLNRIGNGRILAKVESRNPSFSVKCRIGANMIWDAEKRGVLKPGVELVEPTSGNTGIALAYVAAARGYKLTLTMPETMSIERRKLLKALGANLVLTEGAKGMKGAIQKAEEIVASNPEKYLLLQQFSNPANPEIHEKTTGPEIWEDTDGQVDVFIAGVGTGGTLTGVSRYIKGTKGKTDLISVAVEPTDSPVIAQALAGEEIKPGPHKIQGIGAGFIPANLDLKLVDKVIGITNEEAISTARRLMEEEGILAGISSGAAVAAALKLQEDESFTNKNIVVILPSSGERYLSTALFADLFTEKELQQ
Kind of data set: other fluorescence titration; PLP fluorescence (excitation 412 nm, emission 500 nm); 1 uM EcCysK titrated with CdiA-CT to saturation (stoichiometric titration); 20 C. Conditions: both partners purified.

The target of data set [8] is T2, E. coli CysK (EcCysK), O-acetyl-L-Ser …. Kind of data set: other fluorescence titration; PLP fluorescence emission at 500 nm; 80 nM EcCysK titrated with CdiA-CT; data read after 20 min; quadratic tight-binding equation (Eq. 2); 20 C. Conditions: both partners purified.
For data set [9] the target is unchanged. Kind of data set: inhibition of enzyme activity (sulfhydrylase); 6 nM EcCysK titrated with CdiA-CT; buffer A with 2 mM O-acetyl-L-Ser, 0.6 mM Na2S, 60 nM BSA; Morrison equation gives an apparent IC50, converted to Ki (Eq. 4). Conditions: both partners purified.
Data set [10] has the same target. Briefly: inhibition of enzyme activity (sulfhydrylase); as a3 (6 nM EcCysK titrated with CdiA-CT) in the presence of 2.4 uM CdiI. Particulars: both partners purified.

Several values for one entry are separate records, joined by “and”; a condition that tells them apart may be missing. Equal values may be shown once.

The term Kd denotes the concentration at which binding is half-saturated. A high value points to lower affinity. For the molecule “CdiA-CT toxin domain from uropathogenic Escherichia coli 536 (from UniProt Q0T963 3016-3242) (domain or fragment)”, the Kd was 3300 nM in data set [1] and 6400 nM in data set [2].

B1: E. coli CysE (EcCysE), serine O-acetyltransferase (enzyme, UniProt P0A9D4 1-273, looked up)
chain: MSCEELEIVWNNIKAEARTLADCEPMLASFYHATLLKHENLGSALSYMLANKLSSPIMPAIAIREVVEEAYAADPEMIASAACDIQAVRTRDPAVDKYSTPLLYLKGFHALQAYRIGHWLWNQGRRALAIFLQNQVSVTFQVDIHPAAKIGRGIMLDHATGIVVGETAVIENDVSILQSVTLGGTGKSGGDRHPKIREGVMIGAGAKILGNIEVGRGAKIGAGSVVLQPVPPHTTAAGVPARIVGKPDSDKPSMDMDQHFNGINHTFEYGDGI
notes: CysE of E. coli; cysE amplified with primers CH3642/CDI235 (the fragment that also gives 'native EcCysE'); not shown: His6-thioredoxin (His6-TrxA), N-terminal, cleaved
The stoichiometry N is a count of units in the complex or per binding partner. Take B1: the “stoichiometry N” value in data set [3] worked out at 6.

B2: E. coli CysK (EcCysK), O-acetyl-L-Ser sulfhydrylase (protein)
chain: T2 sequence (looked up)
For B2, the “second-order rate constant k3/Kd (slope of kobs against CysK concentration, 5 °C)” value in data set [4] is 0.005 ± 0.0003 µM^−1·s^−1 (5 °C). Further, the “second-order rate constant k3/Kd (slope of kobs against CysK concentration, 37 °C)” value in data set [5] is 0.099 ± 0.019 µM^−1·s^−1 (37 °C). Further, in [6], the “second-order rate constant k3/Kd (slope of kobs against protein concentration)” value is 19000 ± 7000 M⁻¹ s⁻¹ and 17000 ± 7000 M⁻¹ s⁻¹.

B3: CdiA-CT toxin domain from uropathogenic Escherichia coli 536 (domain or fragment)
chain: T1 chain
notes: C-terminal toxin domain (CdiA-CT) of CdiA, uropathogenic E. coli 536
As a reminder, the IC50 is the midpoint of a concentration-inhibition curve. B3: in [7], the “stoichiometry N” value is 1.1 CdiA-CT:EcCysK. In data set [8], this molecule had a Kd of 10 ± 11 nM. In [9], the IC50 amounted to 15.4 ± 0.6 nM and the Ki was determined as 11 ± 0.4 nM.

B4: CdiA-CT in the presence of excess CdiI immunity protein (CdiA-CT:CdiI) (complex)
chain 1: T1 chain
chain 2: MITLRKLIGNINMTKEPEQQSPLELWFERIIDVPLEKLTVEDLCRAIRQNLCIDQLMPRVLEVLTKEPLAGEYYDGELIAALSTIKGEDLKDQKSTFTQIRQLINQLEPSDINDDLRKDILKINQIIV
Regarding B4, the Ki in [10] stood at 6.4 ± 0.5 nM.
